The source of these data is publication PMC3758481.

Assay [1] has as its target spin labeled S697C mutant of C99 (human) (UniProt P05067). The assay is described as follows: continuous wave EPR of spin labeled protein.
Assay [2] has as its target spin labeled L705C mutant of C99 (human) (UniProt P05067). The assay is described as follows: continuous wave EPR of spin labeled protein.

“spin labeled S697C mutant of C99 (from UniProt P05067 672-770) (domain or fragment)” had a KD, average of four fits (sites S697C and L705C, two fields each) in assay [1] of 0.44 mol%.
In turn, “spin labeled L705C mutant of C99 (from UniProt P05067 672-770) (domain or fragment)” returned a KD, average of four fits (sites S697C and L705C, two fields each) in assay [2] of 0.44 mol%.
